Reference: EP4803547A1 (Biontech (Zhuhai) Pharmaceuticals R&D Co., Ltd, dated 2026)

Legend:
human PD-1 on cells = molecular target: T1, human PD-1 on cells (human, UniProt Q15116 25-288); assay: flow cytometry on CHO-hPD-1 cells, anti-human IgG-Fc PE
T1 construct: whole, on cells; also called CHO-hPD-1; CHO-S cells overexpressing human PD-1

human CD40 on cells = molecular target: T2, human CD40 on cells (human, UniProt P25942 21-277); assay: flow cytometry on CHO-hCD40 cells, anti-human IgG-Fc PE
T2 construct: whole, on cells; One molecule is used for human CD40 on the three cell types; also called CHO-hCD40; CHO-S cells overexpressing human CD40

human PD-1 protein = human PD-1 protein (human, UniProt Q15116 25-167, limits assumed); assay: BLI (ForteBio), antibody on AHQ sensor, 100 nM antigen, 1:1 model
human CD40 protein = human CD40 protein (human, UniProt P25942 21-193, limits assumed); assay: as above

Measured: binding result

Sequence of human PD-1 protein (Q15116 25-167 limits assumed): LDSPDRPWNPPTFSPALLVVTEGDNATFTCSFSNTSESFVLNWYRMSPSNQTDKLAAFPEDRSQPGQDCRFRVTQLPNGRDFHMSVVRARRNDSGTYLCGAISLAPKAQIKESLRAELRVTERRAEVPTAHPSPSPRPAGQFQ
T1 sequence (Q15116 25-288): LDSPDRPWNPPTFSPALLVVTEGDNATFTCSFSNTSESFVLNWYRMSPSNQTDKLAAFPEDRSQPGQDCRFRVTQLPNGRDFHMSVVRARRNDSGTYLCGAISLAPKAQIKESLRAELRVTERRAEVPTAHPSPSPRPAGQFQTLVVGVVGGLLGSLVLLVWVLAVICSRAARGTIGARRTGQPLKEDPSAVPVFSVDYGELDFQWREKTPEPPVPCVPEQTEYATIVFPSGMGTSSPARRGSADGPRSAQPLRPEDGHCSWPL
Sequence of human CD40 protein (P25942 21-193 limits assumed): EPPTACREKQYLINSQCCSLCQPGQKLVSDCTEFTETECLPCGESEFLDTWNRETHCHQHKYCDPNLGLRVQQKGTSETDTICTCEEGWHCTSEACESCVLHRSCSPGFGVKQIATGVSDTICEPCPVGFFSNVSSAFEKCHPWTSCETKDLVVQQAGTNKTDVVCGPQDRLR
T2 sequence (P25942 21-277): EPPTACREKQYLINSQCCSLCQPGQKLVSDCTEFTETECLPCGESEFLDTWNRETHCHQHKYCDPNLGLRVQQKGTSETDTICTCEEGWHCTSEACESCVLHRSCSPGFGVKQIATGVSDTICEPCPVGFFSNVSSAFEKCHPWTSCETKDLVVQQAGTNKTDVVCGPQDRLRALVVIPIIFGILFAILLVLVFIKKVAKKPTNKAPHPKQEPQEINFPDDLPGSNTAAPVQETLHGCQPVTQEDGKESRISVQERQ

B1: PD1(pembro)xCD40(non-blocker, ADI-55164) (bispecific antibody, human IgG1, kappa)
heavy: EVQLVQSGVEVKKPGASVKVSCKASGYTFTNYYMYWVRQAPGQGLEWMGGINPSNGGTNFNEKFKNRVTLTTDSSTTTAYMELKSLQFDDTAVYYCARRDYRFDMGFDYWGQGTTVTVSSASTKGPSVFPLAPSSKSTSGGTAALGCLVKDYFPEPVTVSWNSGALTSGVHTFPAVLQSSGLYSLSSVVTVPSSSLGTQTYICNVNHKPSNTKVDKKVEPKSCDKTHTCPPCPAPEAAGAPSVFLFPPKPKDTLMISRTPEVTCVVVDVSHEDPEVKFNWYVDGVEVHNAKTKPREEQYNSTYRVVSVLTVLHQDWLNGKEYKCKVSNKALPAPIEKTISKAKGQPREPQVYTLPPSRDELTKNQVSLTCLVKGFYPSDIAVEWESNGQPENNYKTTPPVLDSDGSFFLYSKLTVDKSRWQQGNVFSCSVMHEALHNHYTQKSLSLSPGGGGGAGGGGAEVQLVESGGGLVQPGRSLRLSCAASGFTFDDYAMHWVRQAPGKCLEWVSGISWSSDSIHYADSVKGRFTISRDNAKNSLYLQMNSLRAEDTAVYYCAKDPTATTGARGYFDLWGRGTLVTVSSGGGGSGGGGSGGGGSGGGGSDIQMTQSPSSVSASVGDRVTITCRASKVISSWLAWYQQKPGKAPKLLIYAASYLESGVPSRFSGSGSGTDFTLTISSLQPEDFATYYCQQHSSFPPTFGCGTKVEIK
light: EIVLTQSPATLSLSPGERATLSCRASKGVSTSGYSYLHWYQQKPGQAPRLLIYLASYLESGVPARFSGSGSGTDFTLTISSLEPEDFAVYYCQHSRDLPLTFGGGTKVEIKRTVAAPSVFIFPPSDEQLKSGTASVVCLLNNFYPREAKVQWKVDNALQSGNSQESVTEQDSKDSTYSLSSTLTLSKADYEKHKVYACEVTHQGLSSPVTKSFNRGEC
notes: also called BsAb-3; PD1(pembro)xCD40(ADI-55164)
binds: human PD-1 on cells | human CD40 on cells | human PD-1 protein | human CD40 protein

B2: PD1xCD40(blocker, ADI-55147) (bispecific antibody, human IgG1, kappa)
heavy: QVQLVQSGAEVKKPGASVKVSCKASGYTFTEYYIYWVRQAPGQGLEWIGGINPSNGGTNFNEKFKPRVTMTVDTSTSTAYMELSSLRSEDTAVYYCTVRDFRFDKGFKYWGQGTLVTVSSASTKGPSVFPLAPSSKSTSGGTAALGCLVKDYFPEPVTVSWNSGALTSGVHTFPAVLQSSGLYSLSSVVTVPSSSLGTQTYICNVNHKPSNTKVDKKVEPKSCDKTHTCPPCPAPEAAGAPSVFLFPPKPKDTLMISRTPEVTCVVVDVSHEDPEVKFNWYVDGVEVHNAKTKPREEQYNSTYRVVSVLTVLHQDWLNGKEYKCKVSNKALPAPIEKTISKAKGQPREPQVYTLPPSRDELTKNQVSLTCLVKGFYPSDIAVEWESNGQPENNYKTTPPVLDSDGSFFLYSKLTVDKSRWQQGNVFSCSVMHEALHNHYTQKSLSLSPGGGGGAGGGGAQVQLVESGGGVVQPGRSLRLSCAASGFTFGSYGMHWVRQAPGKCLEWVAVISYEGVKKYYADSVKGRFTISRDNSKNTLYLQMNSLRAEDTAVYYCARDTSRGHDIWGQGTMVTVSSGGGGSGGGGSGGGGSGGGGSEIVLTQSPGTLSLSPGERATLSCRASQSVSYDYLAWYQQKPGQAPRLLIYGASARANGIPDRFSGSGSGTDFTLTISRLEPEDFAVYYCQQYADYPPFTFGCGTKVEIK
light: EIVLTQSPATLSLSPGERATLSCRASKSVSTSGLNYVHWYQRKPGQAPRLLIYLGSYLDSGVPARFSGSGSGTDFTLTISSLEPEDFAVYYCQQSWELPLTFGGGTKVEIKRTVAAPSVFIFPPSDEQLKSGTASVVCLLNNFYPREAKVQWKVDNALQSGNSQESVTEQDSKDSTYSLSSTLTLSKADYEKHKVYACEVTHQGLSSPVTKSFNRGEC
notes: also called BsAb-2
binds: human PD-1 on cells | human CD40 on cells | human PD-1 protein | human CD40 protein
